Assay results published in the DeepSol protein solubility set.

Test: soluble on expression in E. coli; label from the status in PepcDB or PDB records

Sequence	soluble on expression in E. coli
MSLRPSAPELDHAKRQRLARLPKPVPLGVCTLREQRWVVLDLETSGLNPNRDQVLSIGAVAIEDGAIDFAQQFERTLHRPLQKTNASVLIHGLGPSALAAGCDPAEALLDLLDFIGNSPVLAFHAPFDQRMLARALKETLGHRLQSMFLDVAELAPMLNPDTVLREAGLDDWVARFGLQVEERHHASADAQVTAELALILFSQARRQQLDSPLQLEQRLRGWRRRKMQSHGEGHHHHHH	soluble
MSLRRALIIDDEEAVLKIITHFIEMKDMPIKIVGKATSGDEAVDKIIGLEPDIVFIDIQMPIYNGLEVIEKTSHLSKKINFVVITAFNYFEYAQKALRLNVKDILLKPLDMKEFTKSVEKIIGYQYTNNDLLNEILEYINLNYSNDLKLNDCARLFLTNPSNISRIFKSNLNTTFISYLNHIRIEKSIELLENTTKSINEIAEIVGYNSLNNFYKNFKIEKGMTPKVYKLNTEGHHHHHH	not soluble
MSLRSRDITLTGTYLPNTPVTLVVDGVAQVQGMTDSAGRFRLTGTLEPGRNRVYVMGEGPLASREYAVRYLPPYTDMAGHWAEAVVDALHERGVVSLYPLPRFEPEAQVTRMEFAVMVARALRLPAAEEQAPFTDVAVMPQWALLEVAAAVKAGIIKGMPDGSFAPDRLVTRAEMAAMLTRALAWAGLEVKPEAPEFADQAEIPDWAVEPVAAAVRHGLIKGYPDGTFRPGSPTTRAEAATMVHRLLQTVIGLNPEGHHHHHH	soluble
MSLRTIPLLCFNDVYRVNQKYNPQPGAPEDNSPDRTITVSQFAELLLSERSKWADRQSEDQDDQEGPSKEGLVLFAGDVFNPSVESSVTRGSHMVPIMNALKVDYACVGNHDFDFGFPHLTKLVESTSFPWLLSNIVDTNTGRQPEPLKRFIVTERCGVKIGLIGLVEKDWIATIPSWPHNFRYRSMKDTALELSRELRDPNGEHQVDIIIALTHCRVPNDIRLAIELGAVADKPGVENEHGIDLIVGGHDHIYYIGKGATSWEGYAGRKDVPGTTEDHGVRLIKSGTDFRDLTSANLTVTPTPLGSIRRQLITSLTGKHLYVLPSSPSSPPFEELVKSLLSSVSEALTKPVCFTLTPFDARSEVVRTQESGLGNWIADVLMHAYAESIVQAKGKEGGLGEEFEGDADAAILCGGTLRGDSQYGPGKISLGDILEILPFEDPVVCIELDGKGIWNALESALSKWPAQEGRFPIVSGLAVKWDHTRPPGQRILSIHQIAQPKKDDDDWEDPADMVDFKEQEDGTTVVVKQKKLQLGEEVKNEEGGRMYKVITRDYMAQGYDGFEALKNRNFIVDDENGQIMSSILRSFLLGSSYIFRHKQLEEAAHSHLSRRTSEGHHHHHH	soluble
MSLRVADLLQHINLMKTSDSYGFKEEYESFFEGQSASWDVAKKDQNRAKNRYGNIIAYDHSRVILQPVEDDPSSDYINANYIDGYQRPSHYIATQGPVHETVYDFWRMIWQEQSACIVMVTNLVEVGRVKCYKYWPDDTEVYGDFKVTCVEMEPLAEYVVRTFTLERRGYNEIREVKQFHFTGWPDHGVPYHATGLLSFIRRVKLSNPPSAGPIVVHCSAGAGRTGCYIVIDIMLDMAEREGVVDIYNCVKALRSRRINMVQTEEQYIFIHDAILEACLCGETAIPVCEFKAAYFDMIRIDSQTNSSHLKDEFQTLNSVTPRLQAEDCSIACLPRNHDKNRFMDMLPPDRCLPFLITIDGESSNYINAALMDSYRQPAAFIVTQYPLPNTVKDFWRLVYDYGCTSIVMLNEVDLSQGCPQYWPEEGMLRYGPIQVECMSCSMDCDVINRIFRICNLTRPQEGYLMVQQFQYLGWASHREVPGSKRSFLKLILQVEKWQEECEEGEGRTIIHCLNGGGRSGMFCAIGIVVEMVKRQNVVDVFHAVKTLRNSKPNMVEAPEQYRFCYDVALEYLESSEGHHHHHH	soluble
MSLRVLFLRPDNEDNELNEKLMILRKNGIEVLNIPIFKIKCVSYSLPTYDYEALAFTSRNSVICFKDRTLIKNVHKIYAIGEETAELLMKMYNVNPITPERFTSIELAKRILEDKVNSILSIRSRKASEDMRNILNGKIKYDEIYVYDSEIIRDNINEISKILTECEVDAIAFTSSLMAKLIGPFIRGKCNIIIFSIGPMTTETLKRVNNKVKIIESKTHSIKGIIETILVEMKRNGRDEGHHHHHH	soluble
MSLRVTLREVAQEAGVSLKTASNVINHSGRMADATREKVQDVIDRLGYRVNVSARNLNRGKTGFITLAVPSLTAPYLAELANRVIDAARIYGYSVYITTYAEGSAQGARALLRNFNATVSDGMILSISEVEDLDPEDLDVDYPLVCVGARSTHGKADHVTPDDVQEARLAAQYLFDHGATNLAVIGSRTDPEHILELRDAVEGNAQLRMRGIFEACADQGVELDTRLVPNVGQDWTIGSGARMTQRIVDSGIPFDGIVAFNDQLALGALFTLAANGIAVPDRVQVIGFDNNEEAAYFQPPLTTMDSCLDWIAPTAVSRIINRIDGSRTLEPELITTQSRIIARATTRAEGHHHHHH	soluble
MSLRVVLKLGTSVLTAGTDRLHRPRLVDLMRDIAAVSAQGHEVVLVSSGAVTAGWEALGFPPRERTLAEKQLLAAVGQVQLMHLYTSLAELYGLRSAQLLLTADDFRERTRYLNARTTLEGCLSRGVLPVINENDTVAVEQIKVGDNDTLSAFVANLVEADLLLILTDAPGLYTADPRTHPDATLIPVVERVTPDIWALAGGAGSHRGTGGMHTKIQAAEIATRAGTPVVIAPGDLPEALRRVVDGEALGTRFLAHGTRLEARKRWILAEIAHGRLLLDGGAAQAVRERGSSLLPAGIRQVEGDFERGHTVRLLAPDGQELGRGLTRYRADDLRRVCGHHSREIEALLGYTYGEEAVHRDDLVLLEGHHHHHH	soluble
MSLRWQWRIYEEPLQEPLTTAQGVWRSRSGIYLRLEDEQGQVGYGEIAPLPGWGSETLNADIALCQQLPGHLTPEIMATIPEALPAAQFGFATAWQSVGRLPYRVRPWPICALLGSGQAALEQWQQSWQRGQTTFKWKVGVMSPEEEQAILKALLAALPPGAKLRLDANGSWDRATANRWFAWLDRHGNGKIEYVEQPLPPDQWQALLSLAQTVTTAIALDESVVSAAEVQRWVDRGWPGFFVIKTALFGDPDSLSLLLRRGLEPQRLVFSSALEGAIARTAIFHLLETWQPCHALGFGVDRWRSAPLLTTLTAYERLWERLDQGHHHHHH	soluble
MSLRYLLGIDVGTSGTKTALFDECGNTIKTSTHEYELFQPQVGWAEQNPENWWTACVKGIREVIEKSKIDPLDIKGIGISGQMHGLVLIDKEYKVIRNSIIWCDQRTEKECTQITDTIGKEKLIRITGNPALTGFTLSKLLWVRNNEPDNYKRIYKVLLPKDYIRFKLTGVFAAEVSDASGTQMLDINTRNWSEELLDDLRIDKNILPDVYESVVVSGCVIEKASKETKLAVNTPVVGGAGDQAAGAIGNGIVREGLISTVIGTSGVVFAATDTPRFDSKGRVHTLCHAVPNKWHIMGVTQGAGLSLNWFKRTFCAKEILESKEAGINIYDLLTEKASQSKPGSNGIIYLPYLMGERTPHIDPNVKGAFLGISLINNHNDFVRSILEGVGFSLKNCLDIIENMKVNIEEIRVSGGGAESSIWRQILSDIFNYELTTVKASEGPALGVAILAGVGAGIYNSVEEACDKIVKGNEKVMPNANLIEVYSKVYEVYNSAYPKIKDEGHHHHHH	soluble
MSLSANFSENISRLGLSSRSKQEKLAHLMETELTHLQASFIEAPTGLGKTYGYLLPILASGKGLVVSTATKVLQKQLVNDVAPKLGKTFGLKMAKIVGTKNYISLRKFSELLLNNTDGKNFEIFKMKILIWLTETRTGELDEVSKVMTNDDYFEVIRHDGYVNTKQLHYEQDFWLKAQKEAEQAEIKVVNHAYLIERLADYPETFLENRVLVVDEAQQLFPIMENAGQKSLKITDELIKIDAETSENPQLTKRLQESLVFQLNKKELDLNKIKIDADELGLRNLSALLEADNQIVWRENGMLYASDQDFYNFERLIPKNTKLFMLGATLSLSKDKPSFPDLLGFTDYRFFKIEGNQATNQQLLTVTDAPNIKNLSLIDYADYTANSIGELSKLNLPMVVLFTSKMALTFVAEKLSAEGFEILAQDINGSPAQIKKKFDKGEGKILLGLGSFWEGVDFDKQNQVILVIPRLPFATPDDILTKKYAQKFENPFYDFNVPMATLKLRQAIGRVNRRKNQYSSIVVLDKRLAGKSYAKRMRKNLSETLPVKMLNLLDTISEIKNFLIEGHHHHHH	not soluble
MSLSASQTSDVPTLLVKIFGKDRPGITAGLFDTLAAYSVDVVDIEQVVTRGRIVLCALVTEPPRGLEGDLRATVHSWAESLKLQAEIISGIGDNRPRGFGRSLVTVLGHPLTAEATAAIAARITESGSNIDRIFRLAKYPVTAVEFAVSGVETEPLRTALATEAAALGVDIAVVAAGLHRRAQRLVVMDVDSTLIQDEVIELFAAHAGCEDEVAEVTAAAMRGELDFEQSLHARVALLAGLDASVVDKVRAEVRLTPGARTLIRTLKRLGYQVGVVSGGFTQVTDALQEQLGLDFAQANTLEIVDGRLTGRVTGEIVDRAGKARLLRRFAAAAGVPLSQTVAIGDGANDLDMLNAAGLGVAFNAKPVVREAAHTAVNVPFLDTVLYLLGITREEVEAADTLADDLGDGPGREGHHHHHH	soluble
MSLSAYAELHCLSNFSFQRGASSAAELFQRAKALGYQALAITDECTLAGIVRAWQASRDTGLKLIVGSEMQVEDGPRLVLLVEDLAGYQGLCRLITRARRRAEKGSYRLLREDFAEPLPGLLALWLTGAGEPLAQGRWLQQVFPQRLWLALELHCGQDDARHLQQQLALARQLGLPAVACGDVHMHVRGRRALQDTMTAIRHHLPVAEAGQRLFANGERHLRPVEVLQGLYPQALLDESLAIAGRCAFDLGQLRYQYPRELVPEGHDAGSWLRVLTQRGIVRRWPTGARAEVLKQIDKELTLICDLGYESYFLTVHDIVDFARRQHILCQGRGSAANSVVCFALGITEIDPDRSTLLFERFLSRERNEPPDIDVDFEHERREEVLQYLFQRYGRHRAALTAVVSTYHGAGAVRDVAKALGLPPDQVNALADCCGHWSDTPPSVERLQEAGFDPQSPVLRRVLSLTGQLIGFPRHLSQHPGGFVISEQPLDHLVPVENATMAERTVIQWDKDDLDMVGLLKVDILALGMLSAIRRCFDLIHGYRGQRYSLASIPPEDPATYEMIGRADTIGVFQIESRAQMSMLPRLKPQNFYDLVIEVAIVRPGPIQGGMVHPYLRRRNRQEPETYPSPELEGVLKRTLGVPLFQEQVMQIAIVAADYTPGEADQLRRSMAAWKRHGGLEPHRERLRRGMNRNGYSDEFATQIFEQIKGFGSYGFPESHAASFALLTYASCWLKCHEPAAFACALINSWPMGFYSPDQILQDARRHGLQVLAVDVGASDWDCSLEPIPVQPARAGNGPPGQPALRLGLRMIKGFREDDARRIERARRQRAFVDIADLGERARLDVRAQELLADAGALQALAGDRYRARWEVAGVERQLGLFAEGHHHHHH	soluble
MSLSDAISFRPMTEADLDAVLKIEYAAFSHPWTRGIFSEGLKNYHCWLMFEGSQQVGHGVIQIILDEAHLLNITVKPESQGRGLGLRLLEHLMREAAGHQARECFLEVRASNQAAYRLYERYGFNEIGRRRDYYPAVGGREDALVMACTLFDEGHHHHHH	soluble
MSLSDFDYIQKNTPPEFPEKFKTALLPENIKKNRYSDVLANDDTRVKLNNNGYINANYIFQGRMIASQAPTIETIPDFLQMIIEQQVPIVIMLTKCKEKTRIKATPYWGYKSEGGKKVFGNYTVNTIDTLYDDVEEDKFMEDIQIRYLQIIYEDGVYSFIQIHYMGWPDFGVPLNPKDALDIVYIQYIIGTTSKFSNRNLVCVHCSAGVGRTGVYCLLSRIVEMVTYEILEKSETYSKQRSTSSSSKVREVEDRIEEILLSHPVISYEDCEVILPELVLSIRNERSKMVQTKEQYDFICETVNCFYEDALDSINQYYEVIDALTPLLQEKHSEIVQDFIKRNEEGHHHHHH	soluble
MSLSDLPDDIFQIIVKKLGDEDFNHLGPIIRSNKRGRDIGLSREILKSANLMGMCLHPPNIFPGQLFRNFFVRCLEFENATAMYYEAIRLIVREENVMGSLFLLNQLVPTYDYATIAYAFFQMCAGRGDLAGTTFDTIFEQNSVSRWGSIYSFELEVKCEALIDTIMDFQPHFGMTFAPDWKFASSDCLSISECPDWHGVEYFCEGCYIYYVALRILEVL	soluble
